Results: patent US20220127350A1 (NUMAB THERAPEUTICS, published 2022)

Key:
[1] = target: T1, human IL-17A (human, UniProt Q16552 24-155, limits assumed); test: cell-based or functional assay
[2] = target: T2, human TNFα (human, UniProt P01375 77-233); test: cell-based or functional assay
[3] = target: T1, human IL-17A; test: cell-based or functional assay; remark: listed apart in the source
[4] = target: T2, human TNFα; test: cell-based or functional assay; remark: listed apart in the source
[5] = target: T2, human TNFα; test: SPR (summary table), affinity to human TNF
Protocol: (§1) In this experiment, the biotinylated antigens were captured using the Biotin-CAPture kit from Biacore. After each analyte injection cycle the CAP sensor chip was regenerated and new antigen was captured. Trispecific molecules were injected as analyte using a dose response multicycle kinetic assay with concentrations of the analyte ranging from 0.35 to 90 nM diluted in running buffer. Obtained sensorgrams were fitted using the 1:1 binding model.

[6] = target: T3, human serum albumin (human, UniProt P02768 25-609); test: SPR (summary table), affinity to HSA at pH 5.5
T3 construct: also called HSA
Protocol: (§2) The binding to human serum albumin (HSA) and cynomolgus serum albumin (CSA) was assessed for purified trispecific molecules by running SPR spectroscopy on a MASS-1 device (Sierra Sensors). HSA was directly immobilized on a high capacity amine sensor chip (Sierra Sensors) and trispecific molecules were injected as analyte using a dose response multicycle kinetic assay with concentrations of the analyte ranging from 0.35 to 90 nM diluted either in running buffer at pH5.5 or pH7.5. Obtained sensorgrams were fitted using the 1:1 binding model. Affinity to CSA was assessed in a similar approach using a CSA immobilized sensor chip.

[7] = target: T1, human IL-17A; test: SPR (summary table), affinity to human IL-17, capture setup
Protocol: as §1

[8] = target: T4, cynomolgus serum albumin (cynomolgus monkey, UniProt A2V9Z4 25-608); test: SPR (MASS-1), CSA immobilised, trispecific as analyte, pH 5.5
T4 construct: also called CSA
Protocol: as §2

[9] = target: T4, cynomolgus serum albumin; test: SPR (MASS-1), CSA immobilised, trispecific as analyte, pH 7.4
Protocol: as §2

[10] = target: T3, human serum albumin; test: SPR (MASS-1), HSA immobilised, trispecific as analyte, pH 5.5
Protocol: as §2

[11] = target: T3, human serum albumin; test: SPR (MASS-1), HSA immobilised, trispecific as analyte, pH 7.4
Protocol: as §2

[12] = target: T1, human IL-17A; test: competitive ELISA, blocking of IL-17A/IL-17RA interaction (summary table)
Protocol: (§3) Finally, Tetramethylbenzidine solution was added to develop the plate for 5 to 10 minutes and the reaction was stopped with 1 M HCl. The plate was read at 450 nm and 570 nm (reference wavelength).

[13] = target: T1, human IL-17A; test: SPR (Biacore T200), biotinylated antigen captured (Biotin-CAPture), trispecific as analyte;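 further: multicycle dose-response kinetics, analyte at 0.35–90 nM in running buffer, CAP chip regenerated with fresh antigen each cycle, sensorgrams fitted to a 1:1 binding model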
Protocol: as §1

[14] = target: T5, cynomolgus monkey IL-17A (Macaca fascicularis (cynomolgus monkey)); test: as above
T5 construct: also called cyno IL-17A; cyno IL17A
Protocol: as §1

[15] = target: T2, human TNFα; test: as above
Protocol: as §1

[16] = target: T1, human IL-17A; test: competitive ELISA: IL-17RA coated, biotinylated IL-17A preincubated with trispecific molecule
Protocol: as §3

[17] = target: T1, human IL-17A; test: competitive ELISA: biotinylated human IL-17A preincubated with the trispecific molecule, then binding to coated IL-17RA detected (blocked ligand: IL-17RA) [left panel]
[18] = target: T3, human serum albumin; test: SPR (MASS-1), trispecific immobilised, HSA injected as last analyte
Protocol: (§4) All possible sequences of antigen injection were tested resulting in six possible sequences.
(§5) To evaluate concomitant binding of each antigen to trispecific molecules, the binding level relative to the theoretical Rmax was calculated for each injection using the respective ligand and analyte molecular masses and the immobilization level of the trispecific molecules. The average of the maximum binding relative to theoretical Rmax for each antigen was obtained by averaging individual maximum binding relative to theoretical Rmax obtained for the two injections where the respective antigen was injected as first analyte (in the absence of other bound antigens). Next, the binding relative to the theoretical Rmax of each analyte injection was compared to its average maximum binding to calculate the fraction binding obtained in the presence of other bound antigens. […] The binding levels relative to the theoretical Rmax and the average of maximum binding (binding levels in the absence of other antigens) of each antigen were calculated.

[19] = target: T1, human IL-17A; test: SPR (MASS-1), trispecific immobilised, antigens injected sequentially
Protocol: as §4, §5

[20] = target: T2, human TNFα; test: as above
Protocol: as §4, §5

[21] = target: T3, human serum albumin; test: as above
Protocol: as §4, §5

[22] = target: T1, human IL-17A; test: competitive ELISA: biotinylated human IL-17A preincubated with the trispecific molecule, then binding to coated IL-17RA detected (blocked ligand: IL-17RA) [right panel]
[23] = target: T2, human TNFα; test: cell-based or functional assay; remark: listed apart in the source

B1: A5 (trispecific tribody, Fab-(scFv)2) (other)
light: DIQMTQSPSSLSASVGDRVTINCQASESISSWLAWYQQKPGKRPKLLIYKASTLASGVPSRFSGSGSGTDYTLTISSLQPEDFATYYCQGYYLDSSVDDNVFGGGTKLTVLGRTRTVAAPSVFIFPPSDEQLKSGTASVVCLLNNFYPREAKVQWKVDNALQSGNSQESVTEQDSKDSTYSLSSTLTLSKADYEKHKVYACEVTHQGLSSPVTKSFNRGECGGGGSGGGGSDIQMTQSPSSLSASVGDRVTITCQSSESVYSNNQLSWYQQKPGQPPKLLIYDASDLASGVPSRFSGSGSGTDFTLTISSLQPEDFATYYCAGGFSSSSDTAFGGGTKLTVLGGGGGSGGGGSGGGGSGGGGSEVQLVESGGGLVQPGGSLRLSCAASGFSLSSNAMGWVRQAPGKGLEYIGIISVGGFTYYASWAKGRFTISRDNSKNTVYLQMNSLRAEDTATYFCARDRHGGDSSGAFYLWGQGTLVTVSS
heavy: EVQLVESGGGLVQPGGSLRLSCAASGIDFSTYGISWVRQAPGKGLEWIAYIYPDYGITDYASWVNGRFTISLDNAQNTVYLQMNSLRAEDTAVYYCARSGSYYSRGWGAHYFNLWGQGTLVTVSSASTKGPSVFPLAPSSKSTSGGTAALGCLVKDYFPEPVTVSWNSGALTSGVHTFPAVLQSSGLYSLSSVVTVPSSSLGTQTYICNVNHKPSNTKVDKKVEPKSCGGGGSGGGGSDIQMTQSPSSLSASVGDRVTITCQASQTINYWLAWYQQKPGKAPKLLIYRASTLASGVPSRFSGSGSGTDFTLTISSLQPEDFATYYCQNYYYSTSRSYGFGGGTKLTVLGGGGGSGGGGSGGGGSGGGGSEVQLVESGGGLVQPGGSLRLSCAASGFSFSSDYWMCWVRQAPGKGLEWIGCIYAGDVDDTDYASWARGRFTISRDNSKNTVYLQMNSLRAEDTAVYYCARVDGFDITYFDLWGQGTLVTVSS
notes: Trispecific tribody
[1]
  potency to neutralize IL-17A compared to A7: ~2 fold
[2]
  IC50 in L929 assay, cell viability: 0.02 nM
  rel. IC50 in L929 assay (IC50, A13/IC50, test sample, nM): 0.9
[3]
  rel. IC50 to secukinumab (ng/ml) in HT-29 assay, +HSA: 63
  rel. IC50 to secukinumab (ng/ml) in HT-29 assay, -HSA: 88.9
[4]
  rel. IC50 to A13 (nM) in HT-29 assay, -HSA: 2.4
[5]
  Kd: 0.1 nM
[6]
  Kd: 1.66 nM
[7]
  Kd: 0.575 nM
[8]
  Kd: 0.795 nM
[9]
  Kd: 2.47 nM
[10]
  Kd: 1.66 nM
[11]
  Kd: 2.69 nM
[12]
  rel. IC50 (IC50, secukinumab/IC50, test sample, ng/ml): 4.9
[13]
  Kd: 0.575 nM
[14]
  Kd: 0.523 nM
[15]
  Kd: 0.1 nM
[16]
  rel. IC50 to secukinumab (IC50, secukinumab/IC50, test sample, ng/ml): 4.9
[17]
  IC50 (read off the curve): ~4 ng/mL

B2: A7 (trispecific scDb-scFv) (other)
chain: DIQMTQSPSSLSASVGDRVTINCQASESISSWLAWYQQKPGKRPKLLIYKASTLASGVPSRFSGSGSGTDYTLTISSLQPEDFATYYCQGYYLDSSVDDNVFGGGTKLTVLGGGGGSEVQLVESGGGLVQPGGSLRLSCAASGFSFSSDYWMCWVRQAPGKGLEWIGCIYAGDVDDTDYASWARGRFTISRDNSKNTVYLQMNSLRAEDTAVYYCARVDGFDITYFDLWGQGTLVTVSSGGGGSGGGGSGGGGSGGGGSDIQMTQSPSSLSASVGDRVTITCQASQTINYWLAWYQQKPGKAPKLLIYRASTLASGVPSRFSGSGSGTDFTLTISSLQPEDFATYYCQNYYYSTSRSYGFGGGTKLTVLGGGGGSEVQLVESGGGLVQPGGSLRLSCAASGIDFSTYGISWVRQAPGKGLEWIAYIYPDYGITDYASWVNGRFTISLDNAQNTVYLQMNSLRAEDTAVYYCARSGSYYSRGWGAHYFNLWGQGTLVTVSSGGGGSGGGGSDIQMTQSPSSLSASVGDRVTITCQSSESVYSNNQLSWYQQKPGQPPKLLIYDASDLASGVPSRFSGSGSGTDFTLTISSLQPEDFATYYCAGGFSSSSDTAFGGGTKLTVLGGGGGSGGGGSGGGGSGGGGSEVQLVESGGGLVQPGGSLRLSCAASGFSLSSNAMGWVRQAPGKGLEYIGIISVGGFTYYASWAKGRFTISRDNSKNTVYLQMNSLRAEDTATYFCARDRHGGDSSGAFYLWGQGTLVTVSS
notes: Single chain; also called scDb-scFv A7
[2]
  IC50 in L929 assay, cell viability: 0.01 nM
  rel. IC50 in L929 assay (IC50, A13/IC50, test sample, nM): 1
[3]
  rel. IC50 to secukinumab (ng/ml) in HT-29 assay, +HSA: 64.5
  rel. IC50 to secukinumab (ng/ml) in HT-29 assay, -HSA: 52
[4]
  rel. IC50 to A13 (nM) in HT-29 assay, +HSA: 1
  rel. IC50 to A13 (nM) in HT-29 assay, -HSA: 4.8
[5]
  Kd: 0.122 nM
[6]
  Kd: 1.32 nM
[7]
  Kd: 0.341 nM
[8]
  Kd: 0.463 nM
  koff: 0.000147 s⁻¹
  kon: 318000 M⁻¹ s⁻¹
[9]
  Kd: 1.31 nM
  koff: 0.000215 s⁻¹
  kon: 164000 M⁻¹ s⁻¹
[10]
  Kd: 1.32 nM
  koff: 0.000373 s⁻¹
  kon: 284000 M⁻¹ s⁻¹
[11]
  Kd: 1.91 nM
  koff: 0.000369 s⁻¹
  kon: 193000 M⁻¹ s⁻¹
[18]
  relative binding level compared to average maximum binding: ~70%
[19]
  antigen binding relative to average maximum binding: ≥ 70%
[20]
  antigen binding relative to average maximum binding: ≥ 70%
[21]
  antigen binding relative to average maximum binding: ≥ 70%
[12]
  rel. IC50 (IC50, secukinumab/IC50, test sample, ng/ml): 10.6
[13]
  Kd: 0.341 nM
  koff: 7.83e-05 s⁻¹
  kon: 229000 M⁻¹ s⁻¹
[14]
  Kd: 0.223 nM
  koff: 5.89e-05 s⁻¹
  kon: 264000 M⁻¹ s⁻¹
[15]
  Kd: 0.122 nM
  koff: 3.59e-05 s⁻¹
  kon: 296000 M⁻¹ s⁻¹
[16]
  rel. IC50 to secukinumab (IC50, secukinumab/IC50, test sample, ng/ml): 10.6
[22]
  IC50 (read off the curve): ~5 ng/mL

B3: A8 (trispecific scDb-scFv) (other)
chain: DIQMTQSPSSLSASVGDRVTITCQSSESVYSNNQLSWYQQKPGQPPKLLIYDASDLASGVPSRFSGSGSGTDFTLTISSLQPEDFATYYCAGGFSSSSDTAFGGGTKLTVLGGGGGSEVQLVESGGGLVQPGGSLRLSCAASGIDFSTYGISWVRQAPGKGLEWIAYIYPDYGITDYASWVNGRFTISLDNAQNTVYLQMNSLRAEDTAVYYCARSGSYYSRGWGAHYFNLWGQGTLVTVSSGGGGSGGGGSGGGGSGGGGSDIQMTQSPSSLSASVGDRVTINCQASESISSWLAWYQQKPGKRPKLLIYKASTLASGVPSRFSGSGSGTDYTLTISSLQPEDFATYYCQGYYLDSSVDDNVFGGGTKLTVLGGGGGSEVQLVESGGGLVQPGGSLRLSCAASGFSLSSNAMGWVRQAPGKGLEYIGIISVGGFTYYASWAKGRFTISRDNSKNTVYLQMNSLRAEDTATYFCARDRHGGDSSGAFYLWGQGTLVTVSSGGGGSGGGGSDIQMTQSPSSLSASVGDRVTITCQASQTINYWLAWYQQKPGKAPKLLIYRASTLASGVPSRFSGSGSGTDFTLTISSLQPEDFATYYCQNYYYSTSRSYGFGGGTKLTVLGGGGGSGGGGSGGGGSGGGGSEVQLVESGGGLVQPGGSLRLSCAASGFSFSSDYWMCWVRQAPGKGLEWIGCIYAGDVDDTDYASWARGRFTISRDNSKNTVYLQMNSLRAEDTAVYYCARVDGFDITYFDLWGQGTLVTVSS
notes: Single chain
[23]
  potency to neutralize TNFα compared to A7: ~2 fold
[2]
  IC50 in L929 assay, cell viability: 0.03 nM
  rel. IC50 in L929 assay (IC50, A13/IC50, test sample, nM): 0.4
[3]
  rel. IC50 to secukinumab (ng/ml) in HT-29 assay, +HSA: 304
  rel. IC50 to secukinumab (ng/ml) in HT-29 assay, -HSA: 44.1
[4]
  rel. IC50 to A13 (nM) in HT-29 assay, +HSA: 4.6
  rel. IC50 to A13 (nM) in HT-29 assay, -HSA: 3.9
[5]
  Kd: 0.185 nM
[6]
  Kd: 0.799 nM
[7]
  Kd: 0.483 nM
[10]
  Kd: 0.799 nM
  koff: 0.000375 s⁻¹
  kon: 469000 M⁻¹ s⁻¹
[11]
  Kd: 1.42 nM
  koff: 0.00044 s⁻¹
  kon: 310000 M⁻¹ s⁻¹
[18]
  relative binding level compared to average maximum binding: ~70%
[19]
  antigen binding relative to average maximum binding: ≥ 70%
[20]
  antigen binding relative to average maximum binding: ≥ 70%
[21]
  antigen binding relative to average maximum binding: ≥ 70%
[12]
  rel. IC50 (IC50, secukinumab/IC50, test sample, ng/ml): 10.2
[13]
  Kd: 0.483 nM
  koff: 8.36e-05 s⁻¹
  kon: 173000 M⁻¹ s⁻¹
[15]
  Kd: 0.185 nM
  koff: 4.06e-05 s⁻¹
  kon: 219000 M⁻¹ s⁻¹
[16]
  rel. IC50 to secukinumab (IC50, secukinumab/IC50, test sample, ng/ml): 10.2
[22]
  IC50 (read off the curve): ~5 ng/mL
